Target: CD40 on APCs (CD2-depleted human PBMC) (human) (UniProt P25942)
Assay: cell-based or functional assay

Sequence of UniProt P25942 (P25942 21-277): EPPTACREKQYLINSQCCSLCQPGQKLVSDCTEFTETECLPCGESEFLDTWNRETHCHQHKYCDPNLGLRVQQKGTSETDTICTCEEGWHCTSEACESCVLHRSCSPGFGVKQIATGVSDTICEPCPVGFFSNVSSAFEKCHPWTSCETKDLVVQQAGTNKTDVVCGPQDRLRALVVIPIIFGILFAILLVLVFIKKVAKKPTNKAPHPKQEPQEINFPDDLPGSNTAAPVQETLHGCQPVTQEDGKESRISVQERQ

| % Positive APCs for CD40 after 24 h with D1.1 cells (APC alone: 99(203)) [%] | % Positive APCs for CD54 after 24 h with D1.1 cells (APC alone: 60(350)) [%] | % Positive APCs for CD58 after 24 h with D1.1 cells (APC alone: 42(374)) [%] | % Positive APCs for CD80 after 24 h with D1.1 cells (APC alone: 17(90)) [%] | % Positive APCs for CD86 after 24 h with D1.1 cells (APC alone: 35(318)) [%] | MFI of CD40 on APCs after 24 h with D1.1 cells (APC alone: 99(203)) (scale: MFI) | MFI of CD54 on APCs after 24 h with D1.1 cells (APC alone: 60(350)) (scale: MFI) | MFI of CD58 on APCs after 24 h with D1.1 cells (APC alone: 42(374)) (scale: MFI) | MFI of CD80 on APCs after 24 h with D1.1 cells (APC alone: 17(90)) (scale: MFI) | MFI of CD86 on APCs after 24 h with D1.1 cells (APC alone: 35(318)) (scale: MFI) | % Positive APCs for CD40 after 48 h with CD40 mAb on CD32+ L cells plus IL-4 (APC alone: 99(231)) [%] | % Positive APCs for CD54 after 48 h with CD40 mAb on CD32+ L cells plus IL-4 (APC alone: 65(283)) [%] | % Positive APCs for CD80 after 48 h with CD40 mAb on CD32+ L cells plus IL-4 (APC alone: 16(78)) [%] | % Positive APCs for CD86 after 48 h with CD40 mAb on CD32+ L cells plus IL-4 (APC alone: 30(310)) [%] | MFI of CD40 on APCs after 48 h with CD40 mAb on CD32+ L cells plus IL-4 (APC alone: 99(231)) (scale: MFI) | MFI of CD54 on APCs after 48 h with CD40 mAb on CD32+ L cells plus IL-4 (APC alone: 65(283)) (scale: MFI) | MFI of CD58 on APCs after 48 h with CD40 mAb on CD32+ L cells plus IL-4 (APC alone: 40(315)) (scale: MFI) | MFI of CD80 on APCs after 48 h with CD40 mAb on CD32+ L cells plus IL-4 (APC alone: 16(78)) (scale: MFI) | MFI of CD86 on APCs after 48 h with CD40 mAb on CD32+ L cells plus IL-4 (APC alone: 30(310)) (scale: MFI) | Substance |
| --- | --- | --- | --- | --- | --- | --- | --- | --- | --- | --- | --- | --- | --- | --- | --- | --- | --- | --- | --- |
| 99 | 85 | 70 | 41 | 49 | 312 | 358 | 380 | 141 | 327 |  |  |  |  |  |  |  |  |  | CD40L constitutively expressed on the D1.1 Jurkat T cell line (from UniProt P29965 1-261) (ligand) |
|  |  |  |  |  |  |  |  |  |  | 99 | 97 | 31 | 63 | 430 | 443 | 458 | 109 | 464 | mAb CD40 G28-5 (antibody) |
